Measurements published in US20140086916A1 (Merck Sharp & Dohme, published 2014).
“And” between values parts separate entries of the source, which are not always exact repeats. Equal values may be shown once. Read-outs that look alike come from different tables or passages of the source.

Legend:
[1] = biological target: T1, FcγRIIb (Pichia pastoris produced) (UniProt P31994 43-217, limits assumed); assay: fold change of the Table 12 affinities
T1 construct: also called FcgRIIB; CD32B
T1 sequence (looked up): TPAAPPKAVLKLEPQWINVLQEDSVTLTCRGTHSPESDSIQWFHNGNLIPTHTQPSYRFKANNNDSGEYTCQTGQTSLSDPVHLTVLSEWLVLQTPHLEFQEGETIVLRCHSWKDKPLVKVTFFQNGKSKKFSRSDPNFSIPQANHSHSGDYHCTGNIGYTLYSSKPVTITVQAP
Protocol: (§1) Fcγ receptor binding assays were carried out as described (Shields, et al. (2001) J. Biol. Chem. 276:6591-6604) with minor modifications. High protein binding 96-well plates (Corning Costar) were coated with 100 μL per well of Fcγ receptor solutions in PBS at the following concentrations: 1 μg/mL for both FcγRI (R&D Systems) and FcγRIIa (Pichia pastoris produced), 2 μg/mL for FcγRIIb (P. pastoris produced), 0.8 μg/mL for FcγRIIIa-F158, and 0.4 μg/mL for FcγRIIIa-V158 (both P. pastoris produced). All Pichia pastoris produced receptors were expressed and purified as described (Li, et al. (2006) Nature Biotechnology 24:210-215). Monomeric antibody samples added to the FcγRI plate were serially diluted in assay diluent (1×PBS, 1% BSA, and 0.05% Tween20) and 100 μL, per well was added to the plate. Antibody samples prepared for the remaining receptors require a one hour dimerization step with half molar ratio of goat anti-human IgG F(ab′)2 F(ab′)2 that is conjugated with alkaline phosphatase for detection. These dimerized F(ab′)2/antibody complexes were also serially diluted and 100 μL per well were added to the remaining receptor plates and all plates were incubated for one hour at room temperature. FcγRI bound sample antibody was detected using the same goat anti-human IgG F(ab′)2 alkaline phosphatase conjugated F(ab′)2. Sample antibody binding was quantified by measuring excitation at 340 nm and emission at 465 nm after 18 hour incubation with SuperPhos, 4-MUP Fluorescence AP Substrate Detection System (Virolabs).

[2] = biological target: T2, wild-type human PCSK9 (human, UniProt Q8NBP7 31-692, limits assumed); assay: SPR (Biacore T100), average KD of the six YGLY25267 runs
T2 construct: also called PCSK9 antigen
Protocol: The CM5 chip was immobilized on all flowcells with mouse anti-human IgG (Fc specific) according to the Biacore Human Antibody Capture Kit (Cat# BR-1008-39) to ˜7000RU. Anti-PCSK9 antibodies were captured on the chip to ˜500RU followed by analyte injections of wild-type human PCSK9 from 64.1 nM to 2.0 nM. Each flowcell was regenerated between each analyte injection with 3M MgCl for 40 seconds at 10 uL/min. Data was analyzed with Biacore T100 Evaluation Software using the 1:1 binding model using at least 5 point concentration range sensogram.

[3] = biological target: T3, FcγRIIA H (UniProt P12318 34-217, limits assumed); assay: fold change of the Table 12 affinities (arrow not given)
T3 construct: also called FcgRIIA H
T3 sequence (looked up): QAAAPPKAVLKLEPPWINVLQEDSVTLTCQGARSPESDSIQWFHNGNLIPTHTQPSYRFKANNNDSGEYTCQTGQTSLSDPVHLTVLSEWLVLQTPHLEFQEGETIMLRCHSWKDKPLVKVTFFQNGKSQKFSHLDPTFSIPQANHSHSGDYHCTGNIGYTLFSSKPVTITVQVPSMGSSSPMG
Protocol: as §1, with “These dimerized F(ab′)2/antibody complexes were also serially diluted and 100 μL per well were added to the remaining receptor plates and all plates were incubated for one hour at room temperature.” left out

[4] = biological target: T1, FcγRIIb (Pichia pastoris produced); assay: FcγR affinity assay 'as described in Example 7', n = 3; printed as Affinity (nM) ± STDEV
Protocol: as §1

[5] = biological target: T4, FcγRIIIa-V158 (Pichia pastoris produced) (UniProt P08637 17-208, limits assumed); assay: fold change of the Table 12 affinities; Table 13 fold change computed from the Table 12 affinities
T4 construct: also called FcγRIIIA LV; FcgRIIIA LV
T4 sequence (P08637 17-208 F176V limits assumed): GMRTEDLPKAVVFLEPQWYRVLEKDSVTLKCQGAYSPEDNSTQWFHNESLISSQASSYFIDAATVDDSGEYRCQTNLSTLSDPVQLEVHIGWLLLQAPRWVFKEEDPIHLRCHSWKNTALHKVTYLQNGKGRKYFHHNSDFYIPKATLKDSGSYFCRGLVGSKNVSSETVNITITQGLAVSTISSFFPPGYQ
Protocol: as §1, with “These dimerized F(ab′)2/antibody complexes were also serially diluted and 100 μL per well were added to the remaining receptor plates and all plates were incubated for one hour at room temperature.” left out

[6] = biological target: T5, FcγRIIIa-F158 (Pichia pastoris produced) (UniProt P08637 17-208, limits assumed); assay: fold change of the Table 12 affinities (arrow not given); Table 13 fold change computed from the Table 12 affinities
T5 construct: also called FcγRIIIA LF; FcgRIIIA LF
T5 sequence (P08637 17-208 limits assumed): as the sequence (P08637 17-208 F176V limits assumed) above, with V160F counted along it
Protocol: as §1, with “These dimerized F(ab′)2/antibody complexes were also serially diluted and 100 μL per well were added to the remaining receptor plates and all plates were incubated for one hour at room temperature.” left out

[7] = biological target: T1, FcγRIIb (Pichia pastoris produced); assay: ELISA-type plate assay, FcγR coated, antibody dimerized with AP-conjugated goat anti-human IgG F(ab')2, RFU readout
Protocol: as §1

[8] = biological target: T1, FcγRIIb (Pichia pastoris produced); assay: as above; remark: listed apart in the source
Protocol: as §1

[9] = biological target: T1, FcγRIIb (Pichia pastoris produced); assay: as above; remark: listed apart in the source
Protocol: as §1

[10] = biological target: T1, FcγRIIb (Pichia pastoris produced); assay: as above; remark: listed apart in the source
Protocol: as §1

[11] = biological target: T3, FcγRIIA H; assay: FcγR affinity assay 'as described in Example 7', n = 3; printed as Affinity (nM) ± STDEV; footnote: values > ~5000 nM mean a poor binder
Protocol: as §1

[12] = biological target: T5, FcγRIIIa-F158 (Pichia pastoris produced); assay: FcγR affinity assay 'as described in Example 7', n = 3; printed as Affinity (nM) ± STDEV; footnote: values > ~5000 nM mean a poor binder; Table 12 affinity (nM) assay, n = 3; value outside the tested concentration range
Protocol: as §1, with “These dimerized F(ab′)2/antibody complexes were also serially diluted and 100 μL per well were added to the remaining receptor plates and all plates were incubated for one hour at room temperature.” left out

[13] = biological target: T4, FcγRIIIa-V158 (Pichia pastoris produced); assay: as above
Protocol: as §1, with “These dimerized F(ab′)2/antibody complexes were also serially diluted and 100 μL per well were added to the remaining receptor plates and all plates were incubated for one hour at room temperature.” left out

[14] = biological target: T3, FcγRIIA H; assay: fold change of the Table 12 affinities
Protocol: as §1

[15] = biological target: T5, FcγRIIIa-F158 (Pichia pastoris produced); assay: fold change of the Table 12 affinities
Protocol: as §1

[16] = biological target: T5, FcγRIIIa-F158 (Pichia pastoris produced); assay: FcγR affinity assay 'as described in Example 7', n = 3; printed as Affinity (nM) ± STDEV; footnote: values > ~5000 nM mean a poor binder
Protocol: as §1

[17] = biological target: T4, FcγRIIIa-V158 (Pichia pastoris produced); assay: as above
Protocol: as §1

B1: 1F11 IgG1 F243A/V264A/S267E/L328F quadruple mutein anti-PCSK9 antibody (antibody)
heavy: QVQLVQSGAEVKKPGASVKVSCKVSGYTFTDYYMNWVRQAPGQGLEWIGDINPNNGGAIYNQKFKGRATLTVDKSTSTAYMELRSLRSDDTAVYYCTSGIITEIAEDFWGQGTLVTVSSASTKGPSVFPLAPSSKSTSGGTAALGCLVKDYFPEPVTVSWNSGALTSGVHTFPAVLQSSGLYSLSSVVTVPSSSLGTQTYICNVNHKPSNTKVDKKVEPKSCDKTHTCPPCPAPELLGGPSVFLAPPKPKDTLMISRTPEVTCVVADVEHEDPEVKFNWYVDGVEVHNAKTKPREEQYNSTYRVVSVLTVLHQDWLNGKEYKCKVSNKAFPAPIEKTISKAKGQPREPQVYTLPPSRDELTKNQVSLTCLVKGFYPSDIAVEWESNGQPENNYKTTPPVLDSDGSFFLYSKLTVDKSRWQQGNVFSCSVMHEALHNHYTQKSLSLSPG
light: DIQMTQSPSSLSASVGDRVTITCKASQNVGTNVVWYQQKPGKAPKALIHSASYRYSGVPSRFSGSGSGTDFTLTISSLQPEDFATYYCQQYKTYPYTFGQGTKVEIKRTVAAPSVFIFPPSDEQLKSGTASVVCLLNNFYPREAKVQWKVDNALQSGNSQESVTEQDSKDSTYSLSSTLTLSKADYEKHKVYACEVTHQGLSSPVTKSFNRGEC
notes: Produced in Pichia pastoris GFI6.0; The strains give the same polypeptide with different N-glycan profiles; also called 1F11 QM; YGLY25265
**Q.** How did the “fold change in affinity vs 1F11 IgG1 GS5.0” value [1] turn out when B1 was run?
**A.** 19 fold

**Q.** And the Kd [2]?
**A.** 0.00364 µM

**Q.** And the “fold change in affinity vs 1F11 IgG1 GS5.0” value [3]?
**A.** 9 fold

**Q.** What about the Kd [4] of the same binder?
**A.** 0.029 µM

**Q.** What about the “fold change in affinity vs 1F11 IgG1 GS5.0” value [5] of the same binder?
**A.** > 10000 fold

**Q.** What about the “fold change in affinity vs 1F11 IgG1 GS5.0” value [6] of the same binder?
**A.** 103 fold

**Q.** What about the “EC50 (read off the curve)” value [7] of the same binder?
**A.** ~0.04 µg/mL and ~0.1 µg/mL

**Q.** What about the “EC50 (read off the curve)” value [8] of the same binder?
**A.** ~0.05 µg/mL

**Q.** And the “EC50 (read off the curve)” value [9]?
**A.** ~0.03 µg/mL

**Q.** What about the “EC50 (read off the curve)” value [10] of the same binder?
**A.** ~0.04 µg/mL

**Q.** And the Kd [11]?
**A.** 8.15 µM

**Q.** What about the Kd [12] of the same binder?
**A.** > 5 µM

**Q.** And the Kd [13]?
**A.** > 5 µM

B2: human IgG1 Fc ("hFc") QM (F243A/V264A/S267E/L328F quadruple mutein Fc domain) (other)
chain: AEPKSCDKTHTCPPCPAPELLGGPSVFLAPPKPKDTLMISRTPEVTCVVADVEHEDPEVKFNWYVDGVEVHNAKTKPREEQYNSTYRVVSVLTVLHQDWLNGKEYKCKVSNKAFPAPIEKTISKAKGQPREPQVYTLPPSRDELTKNQVSLTCLVKGFYPSDIAVEWESNGQPENNYKTTPPVLDSDGSFFLYSKLTVDKSRWQQGNVFSCSVMHEALHNHYTQKSLSLSPGK
notes: Fc fragment of human IgG1 with hinge, produced in Pichia pastoris GFI6.0 host YGLY22834; also called YGLY28722; YGLY28725
**Q.** B2 was tested. Which “fold change in affinity vs hFcDM” value [14] did it give?
**A.** 1 fold

**Q.** And the “fold change in affinity vs hFcDM” value [1]?
**A.** 100 fold

**Q.** And the “fold change in affinity vs hFcDM” value [15]?
**A.** 9 fold

**Q.** And the Kd [4]?
**A.** 0.028 µM

**Q.** And the Kd [11]?
**A.** 9.13 µM

**Q.** And the Kd [16]?
**A.** 30.6 µM

**Q.** And the Kd [17]?
**A.** 6.4 µM
